One experiment has as its target CYP3A4 Supersomes (UniProt P08684).
A further experiment deals with CYP2C8 Supersomes (UniProt P10632).
The next experiment addresses T1, Recombinant CYP26B1 (UniProt Q9NR63).
T1 sequence: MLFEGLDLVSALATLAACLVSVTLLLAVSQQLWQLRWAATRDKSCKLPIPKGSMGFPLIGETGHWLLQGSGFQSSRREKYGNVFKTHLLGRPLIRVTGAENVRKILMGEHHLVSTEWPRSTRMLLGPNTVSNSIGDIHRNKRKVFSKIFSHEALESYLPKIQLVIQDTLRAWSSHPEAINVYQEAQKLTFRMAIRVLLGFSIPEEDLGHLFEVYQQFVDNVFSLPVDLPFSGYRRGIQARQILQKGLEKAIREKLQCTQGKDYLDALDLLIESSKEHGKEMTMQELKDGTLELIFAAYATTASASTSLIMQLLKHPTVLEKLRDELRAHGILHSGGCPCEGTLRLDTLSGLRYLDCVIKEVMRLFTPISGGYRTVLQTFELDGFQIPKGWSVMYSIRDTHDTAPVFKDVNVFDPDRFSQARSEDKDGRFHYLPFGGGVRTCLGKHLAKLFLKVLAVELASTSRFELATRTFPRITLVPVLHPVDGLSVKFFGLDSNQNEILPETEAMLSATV

The source of these data is article PMC4997814.

Sequence of UniProt P10632 (P10632 whole entry): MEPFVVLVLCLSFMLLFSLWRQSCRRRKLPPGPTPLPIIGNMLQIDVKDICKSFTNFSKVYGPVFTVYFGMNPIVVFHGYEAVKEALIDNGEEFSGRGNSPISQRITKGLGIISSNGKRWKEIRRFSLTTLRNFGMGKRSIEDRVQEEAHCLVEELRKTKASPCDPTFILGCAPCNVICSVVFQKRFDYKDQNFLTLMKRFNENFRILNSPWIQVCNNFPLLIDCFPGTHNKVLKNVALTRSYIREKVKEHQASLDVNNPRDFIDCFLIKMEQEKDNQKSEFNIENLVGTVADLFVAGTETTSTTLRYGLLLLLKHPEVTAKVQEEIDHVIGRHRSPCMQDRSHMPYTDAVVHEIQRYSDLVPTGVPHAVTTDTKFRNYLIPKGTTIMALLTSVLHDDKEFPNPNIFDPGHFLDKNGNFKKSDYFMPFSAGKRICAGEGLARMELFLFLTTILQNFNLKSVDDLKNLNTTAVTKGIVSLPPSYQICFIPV
Sequence of UniProt P08684 (P08684 whole entry): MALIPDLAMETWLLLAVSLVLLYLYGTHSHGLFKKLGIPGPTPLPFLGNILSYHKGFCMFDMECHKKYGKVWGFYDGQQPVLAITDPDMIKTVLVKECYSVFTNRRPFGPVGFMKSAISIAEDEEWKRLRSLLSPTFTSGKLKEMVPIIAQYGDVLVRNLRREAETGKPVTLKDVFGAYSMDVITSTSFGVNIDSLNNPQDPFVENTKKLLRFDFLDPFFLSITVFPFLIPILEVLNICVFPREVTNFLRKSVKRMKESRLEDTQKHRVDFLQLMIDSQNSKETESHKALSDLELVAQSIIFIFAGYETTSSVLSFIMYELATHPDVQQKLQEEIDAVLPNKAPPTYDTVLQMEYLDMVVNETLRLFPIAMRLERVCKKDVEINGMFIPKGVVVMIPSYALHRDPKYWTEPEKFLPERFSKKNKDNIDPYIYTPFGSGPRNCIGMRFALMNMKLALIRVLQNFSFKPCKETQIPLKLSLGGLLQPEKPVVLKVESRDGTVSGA

Molecule “Cellular retinoic acid binding protein I (CRABP-I) (from UniProt P29762 1-137) (natural protein)” came in with a decrease of 4-OH-RA formation by CYP3A4 with 1 uM holo-CRABP-I against free atRA with CYP3A4 Supersomes of 98%. The molecule also displayed a decrease of 4-OH-RA formation by CYP2C8 with 1 uM holo-CRABP-I against free atRA with CYP2C8 Supersomes of 98%. Besides, the apparent Km of 4-OH-RA formation by CYP26B1 with holo-CRABP-I as substrate in the experiment with Recombinant CYP26B1 amounted to 0.0217 µM.

B1: Cellular retinoic acid binding protein II (CRABP-II) (natural protein)
chain: MPNFSGNWKIIRSENFEELLKVLGVNVMLRKIAVAAASKPAVEIKQEGDTFYIKTSTTVRTTEINFKVGEEFEEQTVDGRPCKSLVKWESENKMVCEQKLLKGEGPKTSWTRELTNDGELILTMTADDVVCTRVYVRE
For the molecule B1, the apparent Km of 4-OH-RA formation by CYP26B1 with holo-CRABP-II as substrate in the experiment with Recombinant CYP26B1 is 0.0243 µM.
